Reference: doi:10.1101/2021.10.18.464900 (bioRxiv, 2021)

B1: IMM20184 Fab (Fab, V domains shown)
VH: EVQLVESGGGLVQPGGSLRLSCSASGFTFSSFWMSWVRQAPGKGLEWVATIREDGSEKYYVDSVKGRFSISRDNAKNSLYLQMNSLRAEDTAVYYCARSKWLRGSFDYWGQGTLVTVSS
VL: NFMLTQPHSVSESPGKTVTISCTRRSGSIASNYVQWYQQRPGSAPTTVIYEDNQRPSGVPDRFSGSIDSSSNSASLTISGLQTEDEADYYCQSYDSSNPPGASWVFGGGTKLTVL
B2: IMM20190 (antibody, V domains shown)
VH: EVQLVESGGGLVQPGGSLRLSCSASGFTVSSNYMSWVRQAPRKGLEWVSVIYAGGSTFYADSVKGRFTISRDNSKNTLLLQMNSLRAEDTAVYYCARDRGGYLDYWGQGTLVTVSS
VL: DIQMTQSPSSLSASVGDRVTITCRASQGISNYLAWYQQKPGKVPKLLIYAASTLQSGVPSRFSGSGSGTDFTLTISSLQPEDVATYYCQKYNSAPGLTFGGGTKVEIK
B3: IMM20253 (antibody, V domains shown)
VH: QVQLVESGGGVVQPGRSLRLSCTASGFTFSTYGMHWVRQAPGKGLEWVAVISYDGSSKHYAESVKGRFTISRDNSNNTLYLQMNRLRAEDTAVYYCARDGQPPGWGNYFDYWGQGTLVTVAS
VL: SYVLTQPPSVSVAPGKTARITCGGNGIGSKSVYWYQQKPGQAPEVVVYDDSDRPSGIPERFSGSNSGNTATLTISRVEAGDEADYYCQVWDSSSDPWVFGGGTKLTVL
B4: IMM20184 (antibody, V domains shown)
VH: B1 VH
VL: B1 VL
B5: IMM20190 Fab (Fab, V domains shown)
VH: B2 VH
VL: B2 VL
B6: IMM20253 Fab (Fab, V domains shown)
VH: B3 VH
VL: B3 VL

Assays:
[1] = biological target: T1, SARS-CoV-2 S protein trimer (Trimer) (SARS-CoV-2, Wuhan/reference, stabilised); test: cryo-EM structure
[2] = biological target: RBD (Wuhan) expressed on the surface of HEK-293T cells (SARS-CoV-2, Wuhan, UniProt P0DTC2); test: flow cytometry on cells
[3] = biological target: T2, soluble RBD of SARS-CoV-2 S protein (REF / Wuhan-1 variant) (SARS-CoV-2, UniProt P0DTC2); test: SPR
[4] = biological target: T1, SARS-CoV-2 S protein trimer (Trimer); test: SPR
[5] = biological target: T2, soluble RBD of SARS-CoV-2 S protein …; test: ELISA
[6] = biological target: RBD of SARS-CoV-2 S protein, Beta (SA) variant (SARS-CoV-2, Beta (B.1.351, SA), strain); test: ELISA
[7] = biological target: RBD of SARS-CoV-2 S protein, Alpha (UK) variant (SARS-CoV-2, Alpha (B.1.1.7, UK) variant, strain); test: ELISA

| Binder | stoichiometry N [1] | kon [4] | fold faster on-rate to RBD than to Trimer [3] | further results |
| --- | --- | --- | --- | --- |
| B1 | 3 Fab:Trimer |  |  |  |
| B2 |  | > 29500 M⁻¹ s⁻¹ |  | binding result [2]: binds; binding result [3]: binds |
| B3 |  | > 29500 M⁻¹ s⁻¹ | 19 fold | percent inhibition of ACE2 binding [5]: ≤ 40%; percent inhibition of ACE2 binding [6]: ≤ 40%; percent inhibition of ACE2 binding [7]: ≤ 40% |
| B4 |  | > 29500 M⁻¹ s⁻¹ | 17 fold | koff [3]: 0.0013 s⁻¹; koff [4]: 0.00023 s⁻¹ |
| B5 | 3 Fab:Trimer |  |  |  |
| B6 | 1 Fab:Trimer |  |  |  |
